From article PMC2042504

Columns and labels:
[1] = molecular target: 35S-labeled full-length Vpu protein, in vitro translated (gel permeation) (HIV-1, isolate not stated (NL4-3 and R5 cloned)); assay: SEC; gel permeation of 35S-labeled in vitro translation mixture on Sephacryl S200HR in PBS, calibrated with lysozyme and BSA; pentamer and monomer peaks
[2] = molecular target: Vpu fused to ECFP or to EYFP (HIV-1, isolate not stated (NL4-3 and R5 cloned)); assay: FRET or BRET; acceptor photobleaching FRET of ECFP-Vpu and EYFP-Vpu in live COS-1 cells with low expression, punctate and vesicular distribution
[3] = molecular target: Vpu fused to ECFP or to EYFP (HIV-1, isolate not stated (NL4-3 and R5 cloned)); assay: FRET or BRET; acceptor photobleaching FRET of ECFP-Vpu and EYFP-Vpu in live U2-OS cells, regions that appeared to be Golgi or unidentified vesicles
[4] = molecular target: 35S-labeled Vpu TM domain, in vitro translated (gel permeation) (HIV-1, isolate not stated (NL4-3 and R5 cloned)); assay: SEC; gel permeation of 35S-labeled in vitro translation mixture on Sephacryl S200HR in PBS, calibrated with lysozyme and BSA; pentamer and monomer peaks

“35S-labeled full-length Vpu protein, in vitro translated (gel permeation) (natural protein)” gave a percent of the radioactivity in the oligomer peak [1] of 10% and a stoichiometry N [1] of 5.

“Vpu fused to ECFP or to EYFP (natural protein)” gave an FRET efficiency [2] of 18.5% and an FRET efficiency [3] of 26%.

“35S-labeled Vpu TM domain, in vitro translated (gel permeation) (domain or fragment)” gave a percent of the radioactivity in the oligomer peak [4] of 10% and a stoichiometry N [4] of 5.
